The chains are these.
B1: TPR 5TU (parent)
chain: GGAUCUUCUCGAUCUAACAAAAAAGACAAAUCUGCCACAAAGCUUGAGAGCAUCUUCGGAUGCAGAGGCGGCAGCCUUCGGUGGCGCGAUAGCGCCAACGUUCUCAACUAUGACACGCAAAACGCGUGCUCCGUUGAAUGGAGUUUAUCAUG

From the RNAGym collection of RNA variant scans (doi:10.1073/pnas.2313332121) come the findings set out here.

Fewer inactive variants are shown than the library holds.

In the series the parent is B1. Put plainly: polymerase ribozyme fitness, log enrichment relative to wild type (log ratio); higher = more active; in vitro selection for triplet polymerase activity. Put shortly: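 To select mutant libraries of each subunit of a heterodimeric triplet polymerase ribozyme, built by PCR and transcribed, each was annealed with a biotinylated primer, partner subunit and triplets, then incubated frozen at −7 °C. Extended constructs were gel-excised, captured on streptavidin beads and amplified by RT-PCR, in one round carried out in triplicate. Illumina sequencing of input and output libraries kept genotypes with ≥10 input reads and ≥1 read per output. Fitness is the base-2 logarithm of genotype enrichment relative to wild-type enrichment, from inverse-variance-weighted replicate averages.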
As to A49C C87G, the “polymerase ribozyme fitness (log ratio)” value is no more than -4.2.

As to A47U C103G A115G G140C, the “polymerase ribozyme fitness (log ratio)” value was no more than -4.2.

On to A49C G58A, for which the “polymerase ribozyme fitness (log ratio)” value is -4.08.

As for G48U C57U G58C G62C G67A U82A G86A, the “polymerase ribozyme fitness (log ratio)” value was no more than -4.2.

As for A49C G50C U78C G140C, the “polymerase ribozyme fitness (log ratio)” value is no more than -4.2.

In the case of G48A G50A G58C C87G, the “polymerase ribozyme fitness (log ratio)” value was no more than -4.2.

Turning to A47U G50A C129U, the “polymerase ribozyme fitness (log ratio)” value is -3.09.

A47C U56A U144C U151G: the “polymerase ribozyme fitness (log ratio)” value is no more than -4.2.

U45A G136C: the “polymerase ribozyme fitness (log ratio)” value was no more than -4.2.

As to A49C A73G U90C C149U, the “polymerase ribozyme fitness (log ratio)” value was no more than -4.2.

Consider A47C A60G A107U, for which the “polymerase ribozyme fitness (log ratio)” value was -3.3.

On to U45A C79U C103A C118U, for which the “polymerase ribozyme fitness (log ratio)” value was no more than -4.2.

As to G46U C72U C87U, the “polymerase ribozyme fitness (log ratio)” value is -1.01.

For the variant G46C A98U, the “polymerase ribozyme fitness (log ratio)” value is -1.22.

As to U45G G59A G84A A89G C118U, the “polymerase ribozyme fitness (log ratio)” value was -3.18.

Take A47U U53A G133C: the “polymerase ribozyme fitness (log ratio)” value is -2.66.

As to A47C G48U C75U U77A G83C C96A C99A, the “polymerase ribozyme fitness (log ratio)” value was no more than -4.2.

On to G48A G50U U55A, for which the “polymerase ribozyme fitness (log ratio)” value was -2.15.

Turning to A47G G152U, the “polymerase ribozyme fitness (log ratio)” value was -2.47.

For G46C C69A G81A, the “polymerase ribozyme fitness (log ratio)” value was -1.82.

On to G48U C132A U139G, for which the “polymerase ribozyme fitness (log ratio)” value was -3.31.

For A47G G50U C85G, the “polymerase ribozyme fitness (log ratio)” value is -3.89.

Regarding G46A U53G U56A A91C U104G G128U U146C, the “polymerase ribozyme fitness (log ratio)” value is no more than -4.2.

Consider A47U U148C, for which the “polymerase ribozyme fitness (log ratio)” value was -2.46.

With G48A G70A U78G G84U G143U, the “polymerase ribozyme fitness (log ratio)” value was no more than -4.2.

For the variant A49C A106U, the “polymerase ribozyme fitness (log ratio)” value was -3.68.

For A49C C54U C69A G94A U151C, the “polymerase ribozyme fitness (log ratio)” value is no more than -4.2.

In the case of G46A G124C, the “polymerase ribozyme fitness (log ratio)” value is -1.46.

Consider A47G A49C U104G, for which the “polymerase ribozyme fitness (log ratio)” value was no more than -4.2.

As to A47G C85A C93A A98C A121U, the “polymerase ribozyme fitness (log ratio)” value was -4.11.

A47C C99U A122U G141A: the “polymerase ribozyme fitness (log ratio)” value was -3.39.

A47G G88A C96U A120G G143A: the “polymerase ribozyme fitness (log ratio)” value was no more than -4.2.

In the case of U45G U61A, the “polymerase ribozyme fitness (log ratio)” value was -2.35.

On to A47C G117A, for which the “polymerase ribozyme fitness (log ratio)” value was 0.357.

For A47C, the “polymerase ribozyme fitness (log ratio)” value was -0.224.

With A47G, the “polymerase ribozyme fitness (log ratio)” value was 0.239.

Consider A47U, for which the “polymerase ribozyme fitness (log ratio)” value is -0.143.

Turning to G48C C118G A120G, the “polymerase ribozyme fitness (log ratio)” value is -3.82.

Consider G46A C54A C57G G74U C87A A121G, for which the “polymerase ribozyme fitness (log ratio)” value was no more than -4.2.

With G48A G81U G92U C118A G152C, the “polymerase ribozyme fitness (log ratio)” value was no more than -4.2.

On to A47C A89G A97U C131G, for which the “polymerase ribozyme fitness (log ratio)” value was no more than -4.2.

As to A49C C54G C79U G88A C95G, the “polymerase ribozyme fitness (log ratio)” value is no more than -4.2.

Consider G46C U55G U144A, for which the “polymerase ribozyme fitness (log ratio)” value is -1.97.

As to U45A G83A A121U G141C U148G, the “polymerase ribozyme fitness (log ratio)” value is no more than -4.2.

Turning to U45G A49C G62C G94C C118G, the “polymerase ribozyme fitness (log ratio)” value is no more than -4.2.

With A49C A66U C75G C87G C93A A98G A115U U127G G152C, the “polymerase ribozyme fitness (log ratio)” value is no more than -4.2.

A49C G50C G71A U90C C93G G117U C123G: the “polymerase ribozyme fitness (log ratio)” value is no more than -4.2.

For U45A U61A, the “polymerase ribozyme fitness (log ratio)” value was -4.16.

For G48C C85A, the “polymerase ribozyme fitness (log ratio)” value was -2.58.

In the case of U45C U56A A64C G74A G94C C114U A115U, the “polymerase ribozyme fitness (log ratio)” value is no more than -4.2.

Turning to U45C C108G, the “polymerase ribozyme fitness (log ratio)” value was no more than -4.2.

As for A47C G80A C95U U104G A120G, the “polymerase ribozyme fitness (log ratio)” value is -0.454.

With G48C G50A G81U C95A U146G, the “polymerase ribozyme fitness (log ratio)” value was -3.35.

In the case of G48C G50A C54U C85A C129G, the “polymerase ribozyme fitness (log ratio)” value is no more than -4.2.

With A47G G83C C87G G112U A120C C125A G136U, the “polymerase ribozyme fitness (log ratio)” value was no more than -4.2.

For the variant G48A G62A G68C C105U G126A G136C G141U U145G, the “polymerase ribozyme fitness (log ratio)” value was no more than -4.2.

With G46U G68C U78A C93G C99U G100C C118A A119U U144G G152A, the “polymerase ribozyme fitness (log ratio)” value is no more than -4.2.

For G48A C75G U78C, the “polymerase ribozyme fitness (log ratio)” value was no more than -4.2.

With A47G C51U C75U C96A C103U A138G A147C, the “polymerase ribozyme fitness (log ratio)” value was no more than -4.2.

As for U45A G59C C85U G86A G92U U146G, the “polymerase ribozyme fitness (log ratio)” value was no more than -4.2.

On to G46C A60U, for which the “polymerase ribozyme fitness (log ratio)” value is -1.74.

With A49C C57U A60G C76U C118A, the “polymerase ribozyme fitness (log ratio)” value is no more than -4.2.

Take G48A C51A U56A G62C: the “polymerase ribozyme fitness (log ratio)” value is -3.16.

Regarding A47G G94C, the “polymerase ribozyme fitness (log ratio)” value was -0.418.

On to A47C C76A C87G C96U A115G, for which the “polymerase ribozyme fitness (log ratio)” value was no more than -4.2.

Turning to G46U A138C, the “polymerase ribozyme fitness (log ratio)” value is -3.8.

Turning to G48U C85A U144C, the “polymerase ribozyme fitness (log ratio)” value was -2.1.

As to G46U C96U A142G, the “polymerase ribozyme fitness (log ratio)” value is -1.19.

On to U45A G48U G50C C85A C87A C95A U145C, for which the “polymerase ribozyme fitness (log ratio)” value is no more than -4.2.

As for G46A G67A C87A A97C G143C, the “polymerase ribozyme fitness (log ratio)” value was no more than -4.2.

With A47C G136A, the “polymerase ribozyme fitness (log ratio)” value was 0.0265.

Regarding G46A C54G, the “polymerase ribozyme fitness (log ratio)” value is -1.88.

U45A G48C G50C U53A U56A U61G C105G A119G G136U: the “polymerase ribozyme fitness (log ratio)” value is no more than -4.2.

In the case of G46A C51A A98G C125U, the “polymerase ribozyme fitness (log ratio)” value was no more than -4.2.

Consider A49C C76A C93U A113G G117A, for which the “polymerase ribozyme fitness (log ratio)” value is no more than -4.2.

In the case of G46C A47U U53A C85U U130C A150G, the “polymerase ribozyme fitness (log ratio)” value was no more than -4.2.

Turning to U45A C87U C132G U139C G143A U145G, the “polymerase ribozyme fitness (log ratio)” value was no more than -4.2.

For the variant G46U U55A G84U G126C, the “polymerase ribozyme fitness (log ratio)” value is -1.83.

As to G46A U144G, the “polymerase ribozyme fitness (log ratio)” value stood at 0.469.

Regarding G46U U53A U90C, the “polymerase ribozyme fitness (log ratio)” value was no more than -4.2.

As for G48A C79U, the “polymerase ribozyme fitness (log ratio)” value is -3.91.

For the variant A49C G58C A106C U109A C114A, the “polymerase ribozyme fitness (log ratio)” value was no more than -4.2.

A47U U61A C118U: the “polymerase ribozyme fitness (log ratio)” value is -2.01.

In the case of G46C G59A A66G G83A A120U C123G, the “polymerase ribozyme fitness (log ratio)” value was no more than -4.2.
